T1: RHPN1, Q8TCX5
T1 sequence (Q8TCX5 508-602, limits assumed, looked up): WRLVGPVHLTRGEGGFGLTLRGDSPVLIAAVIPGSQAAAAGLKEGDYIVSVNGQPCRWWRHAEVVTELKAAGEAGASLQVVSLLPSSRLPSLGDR

T2: SNTA1, Q13424
T2 sequence (Q13424 82-180, limits assumed, looked up): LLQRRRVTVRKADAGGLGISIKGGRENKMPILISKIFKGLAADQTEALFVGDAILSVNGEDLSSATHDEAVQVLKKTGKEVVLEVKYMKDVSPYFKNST

T3: FRMPD1, Q5SYB0
T3 sequence (Q5SYB0 52-145, limits assumed, looked up): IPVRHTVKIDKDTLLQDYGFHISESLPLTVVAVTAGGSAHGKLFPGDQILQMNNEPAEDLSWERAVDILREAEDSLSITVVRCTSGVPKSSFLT

T4: DLG3_2, Q92796
T4 sequence (Q92796 221-321, limits assumed, looked up): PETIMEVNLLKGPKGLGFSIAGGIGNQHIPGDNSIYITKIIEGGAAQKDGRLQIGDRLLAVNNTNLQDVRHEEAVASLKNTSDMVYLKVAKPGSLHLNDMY

T5: LIN7B, Q9HAP6
T5 sequence (Q9HAP6 88-185, limits assumed, looked up): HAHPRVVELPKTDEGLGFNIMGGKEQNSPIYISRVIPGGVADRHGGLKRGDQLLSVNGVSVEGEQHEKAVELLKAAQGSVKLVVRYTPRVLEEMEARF

T6: ARHGEF11, O15085
T6 sequence (O15085 42-136, limits assumed, looked up): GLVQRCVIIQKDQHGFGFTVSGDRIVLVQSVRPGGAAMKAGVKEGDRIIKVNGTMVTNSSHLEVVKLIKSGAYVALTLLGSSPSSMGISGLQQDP

T7: HTRA3, P83110
T7 sequence (P83110 354-453, limits assumed, looked up): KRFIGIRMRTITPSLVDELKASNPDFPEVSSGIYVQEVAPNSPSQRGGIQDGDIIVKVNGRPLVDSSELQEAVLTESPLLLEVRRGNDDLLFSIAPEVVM

T8: APBA1_1, Q02410
T8 sequence (Q02410 651-752, limits assumed, looked up): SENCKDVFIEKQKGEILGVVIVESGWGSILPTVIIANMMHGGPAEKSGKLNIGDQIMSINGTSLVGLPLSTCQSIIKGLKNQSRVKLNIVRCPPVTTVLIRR

T9: NHERF3_3, Q5T2W1
T9 sequence (Q5T2W1 238-333, limits assumed, looked up): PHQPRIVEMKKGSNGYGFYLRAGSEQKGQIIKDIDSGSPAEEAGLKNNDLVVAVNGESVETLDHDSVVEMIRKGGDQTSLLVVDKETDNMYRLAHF

B1: KCNJ1, P48048 (peptide)
chain: EVNETDDTKM
B2: LRRC4B, Q9NT99 (peptide)
chain: SKENVQETQI
B3: ASNSD1, Q9NWL6 (peptide)
chain: NLSIEKETKL
B4: KCNA1, Q09470 (peptide)
chain: VNKSKLLTDV

target: T1, RHPN1, Q8TCX5; test: holdup assay; set-up: key: below the threshold = too weak to quantify, mostly under pKd 3.1 to 4; details: plain residues with an end cap or a label only (N-terminal biotin on a linker: ado-ado)

Binder | pKd
B1 | below the threshold
B2 | 5.1
B3 | 4.76
B4 | 3.96

target: T2, SNTA1, Q13424; test: holdup assay; set-up: key: below the threshold = too weak to quantify, mostly under pKd 3.1 to 4; details: plain residues with an end cap or a label only (N-terminal biotin on a linker: ado-ado)

Binder | pKd
B1 | below the threshold
B2 | 4.77
B3 | 4.9
B4 | below the threshold

target: T3, FRMPD1, Q5SYB0; test: holdup assay; set-up: key: below the threshold = too weak to quantify, mostly under pKd 3.1 to 4; details: plain residues with an end cap or a label only (N-terminal biotin on a linker: ado-ado)

Binder | pKd
B1 | below the threshold
B2 | below the threshold
B3 | below the threshold
B4 | below the threshold

target: Inadl_4, Q8NI35; test: holdup assay; set-up: key: below the threshold = too weak to quantify, mostly under pKd 3.1 to 4; details: plain residues with an end cap or a label only (N-terminal biotin on a linker: ado-ado)
Sequence (Q8NI35 547-651): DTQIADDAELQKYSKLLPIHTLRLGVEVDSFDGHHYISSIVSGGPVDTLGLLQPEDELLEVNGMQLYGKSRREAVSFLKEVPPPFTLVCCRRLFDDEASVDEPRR

Binder | pKd
B1 | below the threshold
B2 | below the threshold
B3 | below the threshold
B4 | below the threshold

target: T4, DLG3_2, Q92796; test: holdup assay; set-up: key: below the threshold = too weak to quantify, mostly under pKd 3.1 to 4; details: plain residues with an end cap or a label only (N-terminal biotin on a linker: ado-ado)

Binder | pKd
B1 | 3.63
B2 | 4.69
B3 | 4.24
B4 | 4.7

target: PARD3_3, Q8TEW0; test: holdup assay; set-up: key: below the threshold = too weak to quantify, mostly under pKd 3.1 to 4; details: plain residues with an end cap or a label only (N-terminal biotin on a linker: ado-ado)
Sequence (Q8TEW0 582-685): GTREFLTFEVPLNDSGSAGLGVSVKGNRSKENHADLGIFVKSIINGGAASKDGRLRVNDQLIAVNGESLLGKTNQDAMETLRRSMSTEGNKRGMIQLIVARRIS

Binder | pKd
B1 | below the threshold
B2 | 3.78
B3 | below the threshold
B4 | below the threshold

target: T5, LIN7B, Q9HAP6; test: holdup assay; set-up: key: below the threshold = too weak to quantify, mostly under pKd 3.1 to 4; details: plain residues with an end cap or a label only (N-terminal biotin on a linker: ado-ado)

Binder | pKd
B1 | below the threshold
B2 | 4.13
B3 | 4.47
B4 | 3.78

target: DLG4_2, P78352; test: holdup assay; set-up: key: below the threshold = too weak to quantify, mostly under pKd 3.1 to 4; details: plain residues with an end cap or a label only (N-terminal biotin on a linker: ado-ado)
Sequence (P78352 155-259): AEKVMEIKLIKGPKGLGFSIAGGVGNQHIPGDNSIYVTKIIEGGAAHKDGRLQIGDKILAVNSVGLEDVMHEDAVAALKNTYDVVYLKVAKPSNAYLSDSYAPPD

Binder | pKd
B1 | 3.59
B2 | 4.55
B3 | 3.54
B4 | 4.43

target: FRMPD2_1, Q68DX3; test: holdup assay; set-up: key: below the threshold = too weak to quantify, mostly under pKd 3.1 to 4; details: plain residues with an end cap or a label only (N-terminal biotin on a linker: ado-ado)
Sequence (Q68DX3 770-861): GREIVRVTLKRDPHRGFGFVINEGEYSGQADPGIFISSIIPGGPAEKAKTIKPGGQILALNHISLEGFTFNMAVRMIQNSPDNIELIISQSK

Binder | pKd
B1 | below the threshold
B2 | below the threshold
B3 | below the threshold
B4 | below the threshold

target: GIPC2, Q8TF65; test: holdup assay; set-up: key: below the threshold = too weak to quantify, mostly under pKd 3.1 to 4; details: plain residues with an end cap or a label only (N-terminal biotin on a linker: ado-ado)
Sequence (Q8TF65 112-203): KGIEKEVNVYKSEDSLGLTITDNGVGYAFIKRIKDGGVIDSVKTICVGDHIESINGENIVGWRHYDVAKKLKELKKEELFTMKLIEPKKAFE

Binder | pKd
B1 | below the threshold
B2 | below the threshold
B3 | below the threshold
B4 | below the threshold

target: NHERF4_4, Q86UT5; test: holdup assay; set-up: key: below the threshold = too weak to quantify, mostly under pKd 3.1 to 4; details: plain residues with an end cap or a label only (N-terminal biotin on a linker: ado-ado)
Sequence (Q86UT5 464-550): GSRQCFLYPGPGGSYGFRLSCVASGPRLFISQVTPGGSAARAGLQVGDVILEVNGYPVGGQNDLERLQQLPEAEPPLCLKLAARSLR

Binder | pKd
B1 | below the threshold
B2 | below the threshold
B3 | below the threshold
B4 | below the threshold

target: LNX1_2, Q8TBB1; test: holdup assay; set-up: key: below the threshold = too weak to quantify, mostly under pKd 3.1 to 4; details: plain residues with an end cap or a label only (N-terminal biotin on a linker: ado-ado)
Sequence (Q8TBB1 371-470): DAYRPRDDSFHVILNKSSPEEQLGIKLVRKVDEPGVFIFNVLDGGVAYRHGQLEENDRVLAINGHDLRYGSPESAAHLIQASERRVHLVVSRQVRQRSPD

Binder | pKd
B1 | below the threshold
B2 | below the threshold
B3 | below the threshold
B4 | below the threshold

target: MAGI1_2, Q96QZ7; test: holdup assay; set-up: key: below the threshold = too weak to quantify, mostly under pKd 3.1 to 4; details: plain residues with an end cap or a label only (N-terminal biotin on a linker: ado-ado)
Sequence (Q96QZ7 456-580): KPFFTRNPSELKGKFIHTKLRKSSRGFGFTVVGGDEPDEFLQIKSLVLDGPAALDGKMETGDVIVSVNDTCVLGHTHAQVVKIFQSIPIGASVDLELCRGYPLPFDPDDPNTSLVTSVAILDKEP

Binder | pKd
B1 | below the threshold
B2 | below the threshold
B3 | below the threshold
B4 | 4.19

target: GOPC, Q9HD26; test: holdup assay; set-up: key: below the threshold = too weak to quantify, mostly under pKd 3.1 to 4; details: plain residues with an end cap or a label only (N-terminal biotin on a linker: ado-ado)

Binder | pKd
B1 | below the threshold
B2 | 3.99
B3 | below the threshold
B4 | below the threshold

target: MAGI2_3, Q86UL8; test: holdup assay; set-up: key: below the threshold = too weak to quantify, mostly under pKd 3.1 to 4; details: plain residues with an end cap or a label only (N-terminal biotin on a linker: ado-ado)
Sequence (Q86UL8 600-682): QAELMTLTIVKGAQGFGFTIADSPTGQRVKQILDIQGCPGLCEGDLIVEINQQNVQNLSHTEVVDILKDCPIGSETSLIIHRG

Binder | pKd
B1 | 3.48
B2 | 3.63
B3 | below the threshold
B4 | below the threshold

target: T6, ARHGEF11, O15085; test: holdup assay; set-up: key: below the threshold = too weak to quantify, mostly under pKd 3.1 to 4; details: plain residues with an end cap or a label only (N-terminal biotin on a linker: ado-ado)

Binder | pKd
B1 | 3.7
B2 | below the threshold
B3 | below the threshold
B4 | 4.29

target: FRMPD2_3, Q68DX3; test: holdup assay; set-up: key: below the threshold = too weak to quantify, mostly under pKd 3.1 to 4; details: plain residues with an end cap or a label only (N-terminal biotin on a linker: ado-ado)
Sequence (Q68DX3 1073-1166): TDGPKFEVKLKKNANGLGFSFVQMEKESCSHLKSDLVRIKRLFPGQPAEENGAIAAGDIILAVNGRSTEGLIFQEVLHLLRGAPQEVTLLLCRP

Binder | pKd
B1 | below the threshold
B2 | below the threshold
B3 | below the threshold
B4 | below the threshold

target: T7, HTRA3, P83110; test: holdup assay; set-up: key: below the threshold = too weak to quantify, mostly under pKd 3.1 to 4; details: plain residues with an end cap or a label only (N-terminal biotin on a linker: ado-ado)

Binder | pKd
B1 | below the threshold
B2 | below the threshold
B3 | below the threshold
B4 | below the threshold

target: T8, APBA1_1, Q02410; test: holdup assay; set-up: key: below the threshold = too weak to quantify, mostly under pKd 3.1 to 4; details: plain residues with an end cap or a label only (N-terminal biotin on a linker: ado-ado)

Binder | pKd
B1 | below the threshold
B2 | 3.48
B3 | below the threshold
B4 | below the threshold

target: MAGI3_2, Q5TCQ9; test: holdup assay; set-up: key: below the threshold = too weak to quantify, mostly under pKd 3.1 to 4; details: plain residues with an end cap or a label only (N-terminal biotin on a linker: ado-ado)
Sequence (Q5TCQ9 398-503): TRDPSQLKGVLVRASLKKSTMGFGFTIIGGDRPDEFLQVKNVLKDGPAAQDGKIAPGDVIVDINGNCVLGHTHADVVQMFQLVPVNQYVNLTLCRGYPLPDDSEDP

Binder | pKd
B1 | below the threshold
B2 | 4.37
B3 | below the threshold
B4 | 4.16

target: Inadl_8, Q8NI35; test: holdup assay; set-up: key: below the threshold = too weak to quantify, mostly under pKd 3.1 to 4; details: plain residues with an end cap or a label only (N-terminal biotin on a linker: ado-ado)
Sequence (Q8NI35 1425-1530): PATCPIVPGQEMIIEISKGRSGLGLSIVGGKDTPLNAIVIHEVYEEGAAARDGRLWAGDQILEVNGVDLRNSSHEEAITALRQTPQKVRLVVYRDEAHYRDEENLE

Binder | pKd
B1 | below the threshold
B2 | below the threshold
B3 | below the threshold
B4 | 3.91

target: T9, NHERF3_3, Q5T2W1; test: holdup assay; set-up: key: below the threshold = too weak to quantify, mostly under pKd 3.1 to 4; details: plain residues with an end cap or a label only (N-terminal biotin on a linker: ado-ado)

Binder | pKd
B1 | below the threshold
B2 | below the threshold
B3 | 4.67
B4 | below the threshold

target: LNX1_3, Q8TBB1; test: holdup assay; set-up: key: below the threshold = too weak to quantify, mostly under pKd 3.1 to 4; details: plain residues with an end cap or a label only (N-terminal biotin on a linker: ado-ado)
Sequence (Q8TBB1 500-596): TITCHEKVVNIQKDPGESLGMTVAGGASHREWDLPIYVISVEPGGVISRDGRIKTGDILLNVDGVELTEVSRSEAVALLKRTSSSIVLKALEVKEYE

Binder | pKd
B1 | below the threshold
B2 | below the threshold
B3 | below the threshold
B4 | below the threshold

target: MAST2, Q6P0Q8; test: holdup assay; set-up: key: below the threshold = too weak to quantify, mostly under pKd 3.1 to 4; details: plain residues with an end cap or a label only (N-terminal biotin on a linker: ado-ado)
Sequence (Q6P0Q8 1099-1202): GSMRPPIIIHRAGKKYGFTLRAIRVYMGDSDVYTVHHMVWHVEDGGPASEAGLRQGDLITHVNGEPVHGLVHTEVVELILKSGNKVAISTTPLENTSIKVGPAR

Binder | pKd
B1 | 4.83
B2 | 5.56
B3 | 5.62
B4 | 5.07

target: Inadl_1, Q8NI35; test: holdup assay; set-up: key: below the threshold = too weak to quantify, mostly under pKd 3.1 to 4; details: plain residues with an end cap or a label only (N-terminal biotin on a linker: ado-ado)
Sequence (Q8NI35 113-229): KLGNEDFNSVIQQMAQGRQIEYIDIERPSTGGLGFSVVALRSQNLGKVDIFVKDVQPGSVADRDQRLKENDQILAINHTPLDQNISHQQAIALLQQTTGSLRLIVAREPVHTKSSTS

Binder | pKd
B1 | 3.48
B2 | below the threshold
B3 | below the threshold
B4 | below the threshold

target: Inadl_10, Q8NI35; test: holdup assay; set-up: key: below the threshold = too weak to quantify, mostly under pKd 3.1 to 4; details: plain residues with an end cap or a label only (N-terminal biotin on a linker: ado-ado)
Sequence (Q8NI35 1673-1763): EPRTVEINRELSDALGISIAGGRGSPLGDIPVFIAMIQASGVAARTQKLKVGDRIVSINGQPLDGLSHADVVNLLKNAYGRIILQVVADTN

Binder | pKd
B1 | 3.59
B2 | below the threshold
B3 | below the threshold
B4 | below the threshold

target: GORASP1, Q9BQQ3; test: holdup assay; set-up: key: below the threshold = too weak to quantify, mostly under pKd 3.1 to 4; details: plain residues with an end cap or a label only (N-terminal biotin on a linker: ado-ado)
Sequence (Q9BQQ3 1-208): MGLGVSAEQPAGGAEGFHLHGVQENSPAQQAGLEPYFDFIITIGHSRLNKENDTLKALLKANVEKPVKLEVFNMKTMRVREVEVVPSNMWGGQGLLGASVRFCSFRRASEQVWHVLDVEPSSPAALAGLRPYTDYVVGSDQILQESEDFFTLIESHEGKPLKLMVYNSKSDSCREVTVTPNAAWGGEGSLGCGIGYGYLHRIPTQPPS

Binder | pKd
B1 | below the threshold
B2 | below the threshold
B3 | below the threshold
B4 | below the threshold

target: Inadl_6, Q8NI35; test: holdup assay; set-up: key: below the threshold = too weak to quantify, mostly under pKd 3.1 to 4; details: plain residues with an end cap or a label only (N-terminal biotin on a linker: ado-ado)
Sequence (Q8NI35 1058-1167): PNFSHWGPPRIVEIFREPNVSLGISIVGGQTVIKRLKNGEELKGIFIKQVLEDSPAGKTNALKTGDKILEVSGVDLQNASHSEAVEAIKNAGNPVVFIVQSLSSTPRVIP

Binder | pKd
B1 | 3.54
B2 | 3.71
B3 | 4.22
B4 | below the threshold
